Measured values taken from the DeepSol protein solubility set.

Experiment: soluble on expression in E. coli; label from the status in PepcDB or PDB records

Row | Sequence | soluble on expression in E. coli
1 | MGHHHHHHSHMAAAFRKAAKSRQREHRERSQPGFRKHLGLLEKKKDYKLRADDYRKKQEYLKALRKKALEKNPDEFYYKMTRVKLQDGVHIIKETKEEVTPEQLKLMRTQDVKYIEMKRVAEAKKIERLKSELHLLDFQGKQQNKHVFFFDTKKEVEQFDVATHLQTAPELVDRVFNRPRIETLQKEKVKGVTNQTGLKRIAKERQKQYNCLTQRIEREKKLFVIAQKIQTRKDLMDKTQKVKVKKETVNSPAIYKFQSRRKR | soluble
2 | MGHHHHHHSHMAERCFQQAIAFQASCAAVEACFQDLELMHRWLNPLLRCRPEGDWNLDRGSRNRFQIQIPLIYPSLECVVCDRAEGLIVWQFEGFFQGTDTWRWWQEGEHTQLDNCFRFRIAKPWVAWGFDRVAAGVTQRDMQAQLQRLKAIAETLPVASTVTDNLP | not soluble
3 | MGHHHHHHSHMAFCAILLVPSLCRMPSLPTSPWAFPVHWAGFMFKPLDWQGNDFFPPQDEVLAPLSWHKNTFKA | not soluble
4 | MGHHHHHHSHMAFPPGALHPLPKRQALEKSNGTSAVFNPSVLHYQQALTSAQLQQHAAFIPTDNSEIISRNGMECQESALRITKHCYCTYYPVSSSIELPQTAC | not soluble
5 | MGHHHHHHSHMAGTALKRLMAVYKQLTLNPPEGIVAGPMNEENFFEWEALIMGPEDTCFEFGVFPAILSFPLDYPLSPPKMRFTCEMFHPNIYPDGRVCISILHAPGDDPHGLREQPERWSPVQSVEKILLSVVSMLAEPNDESGANVDASKMWRDDREQFYKIAKQIVQKSLGL | not soluble
6 | MGHHHHHHSHMAHYLFNPFYLRLDCDLSKAYIHRIFASFYMEKEADAHTNEKRSKPMTQQYIVEPKKGLGLKLKKGQILKVVDVEGQQVADFVAYHAKDSYEHLDQGATIDAIHSIHVKVSDHLYSNPVLSRWLPLIEDTGPASMICCWPACRPDIEQALIWEAKRMSFRIRAMTICAVRLSSLAYRSPTCITHLRYCMDTVLDEEGNLSVETPLSDAGDYVRLRAEMDLIVAFSSCPRCNRDIQWRQCDIHTG | not soluble
7 | MGHHHHHHSHMASSTSLPAPGSRPKKPLGKMADWFRQTLLKKPKKRPNSPESTSSDASQPTSQDNPLPPSLSSVTSPSLPPTHASDSGSSRWSKDYDVCVCHSEEDLVAAQDLVSYLEGSTASLRCFLQLRDATPGGAIVSELCQALSSSHCRVLLITPGFLQDPWCKYQMLQALTEAPGAEGCTIPLLSGLSRAAYPPELRFMYYVDGRGPDGGFRQVKEAVMRCKLLQEGEGERDSATVSDLL | soluble
8 | MGHHHHHHSHMATLIYVDKEIGEPGTRVAAKDVLKLESRPSIKALDGISQVLTPRFGKTYDAPSALPKATRKALGTVNRATEKSVKTNGPRKQKQPSFSAKKMTEKTVKTKSSVPASDDAYPEIEKFFPFNLLDFESFDLPEERQIAHLPLSGVPLMILDEEGELEKLFQLGPPSPVKMPSPPWECNLFAVSFKHSVDPGC | not soluble
9 | MGHHHHHHSHMDDIFTQCREGNAVAVRLWLDNTENDLNQGDDHGFSPLHWACREGRSAVVEMLIMRGARINVMNRGDDTPLHLAASHGHRDIVQKLLQYKADINAVNEHGNVPLHYACFWGQDQVAEDLVANGALVSICNKYGEMPVDKAKAPLRELLRERAEK | not soluble
10 | MGHHHHHHSHMFSEECIMDVIGCLEYDPALSQPRKHREFLTKTAKFKEVIPISDPELKQKIHQTYRVQYIQDMVLPTPSVFEENMLSTLHSFIFFNKVEIVGMLQEDEKFLTDLFAQLTDEATDEEKRQELVNFLKEFCAFSQTLQPQNRDAFFKTLSNMGILPALEVILGMDDTQVRSAATDIFSYLVEYNPSMVREFVMQEAQQNDDVSKKLTEQKITSKVNIICTNSKYLYIGSYNCFYYSF | soluble
11 | MGHHHHHHSHMHSLATAAPVPTTLAQVDREKIYQWINELSSPETRENALLELSKKRESVPDLAPMLWHSFGTIAALLQEIVNIYPSINPPTLTAHQSNRVCNALALLQCVASHPETRSAFLAAHIPLFLYPFLHTVSKTRPFEYLRLTSLGVTGALVKTDEQEVINFLLTTEIIPLCLRIMESGSELSKTVATFILQKILLDDTGLAYICQTYERFSHVAMILGKMVLQLSKEPSARLLKHVVRCYLRLSDNPRFSDLTFCWSSFQRK | not soluble
12 | MGHHHHHHSHMIEVLTTTDSQKLLHQLNALLEQESRCQPKVCGLRLIESAHDNGLRMTARLRDFEVKDLLSLTQFFGFDTETFSLAVNLLDRFLSKMKVQPKHLGCVGLSCFYLAVKSIEEERNVPLATDLIRISQYRFTVSDLMRMEKIVLEKVCWKVKATTAFQFLQLYYSLLQENLPLERRNSINFERLEAQLKACHCRIIFSKAKPSVLALSIIALEIQAQKCVELTEGIECLQKHSKINGRDLTFWQELVSKCLTEYSSNKCSKPNVQKLKWIVSGRTARQLKHSYYRITHLPTIPEMVP | not soluble
13 | MGHHHHHHSHMINQRMIHMKNTKLLLAIATSAALLTGCQNTHGIDTNMAISSGLNAYKAATLSDADAKAIANQGCAEMDSGNQVASKSSKYGKRLAKIAKALGNNINGTPVNYKVYMTSDVNAWAMANGCVRVYSGLMDMMNDNEIEGVLGHELGHVALGHSLAEMKASYAIVAARDAISATSGVASQLSRSQLGDIAEGAINAKYSRDKESEADDFSFDLLKKRGISTQGLVGSFETLASLDGGRTQSMFDSHPPSTERAQHIRDRIASGK | not soluble
14 | MGHHHHHHSHMKPHFRNTVERMYRDTFSYNFYNRPILSRRNTVWLCYEVKTKGPSRPRLDAKIFRGQVPRSFIRAPFQVLSSPFGQCAPPHGTAQVQWPPQLTAGREQGRP | not soluble
15 | MGHHHHHHSHMKRDELMELIFLGTSAGVPTRTRNVTAILLNLQHPTQSGLWLFDCGEGTQHQLLHTAFNPGKLDKIFISHLHGDHLFGLPGLLCSRSMSGIIQPLTIYGPQGIREFVETALRISGSWTDYPLEIVEIGAGEILDDGLRKVTAYPLEHPLECYGYRIEEHDKPGALNAQALKAAGVPPGPLFQELKAGKTITLEDGRQINGADYLAAPVPGKALAIFGDTGPCDAALDLAKGVDVMVHEATLDITMEAKANSRGHSSTRQAATLAREAGVGKLIITHVSSRYDDKGCQHLLRECRSIFPATELANDFTVFNV | not soluble
16 | MGHHHHHHSHMPKAKKVDAVGPAADADITKPELVVPSEDPKTEEIESVEEKTVEKSTEKPVDKKGGRPVRGKKSPGSDEEAMDGEYEADEEEAALEPRRSTRGKRSYDQETGGRSVRKVVKKAKEVNKKPERAPSARGRGQKPAIGNDSTTEDGEEKKSGKNASDTDSDEEAKVVKRPTSGRMSGAPPSARMLALKKKNHDDSE | not soluble
17 | MGHHHHHHSHMPKVKRSRKAPQDGWELIEPTLDQLDQKMREAETEPHEGKRKVESLWPIFRIHHQKTRYIFDLFYKRKAYSRELLDICYKEGLADKNLLAKWKKQGIGNLCCLRCIQTRDTNFGTNCICRVPKSKLEVGRIIECTHCGCRGCSG | not soluble
18 | MGHHHHHHSHMSIRNWVTRTPSSSPPITPPASETKIMSPRKALTPVSQKSSQAEACSESRNRVKRRLDSSCLESVKQKCVKSCNCVTELDGQVENLHLDLCCLAGNQEDLSKDSLGPTKSSKIEGAGTSISEPPSPISPYASESCGTLPLPLRPCGEGSEMVGKENSSPENKNWLLAMAAKRKAENPSPRSPSSQTPNSRRQSGKTLPSPVTITPSSMRKICTYFHRKSQEDFCGPEHSTEL | not soluble
19 | MGHHHHHHSHMSSSAGSGHQPSQSRAIPTRTVAISDAAQLPHDYCTTPGGTLFSTTPGGTRIIYDRKFLLDRRNSPMAQTPPCHLPNIPGVTSPGTLIEDSKVEVNNLNNLNNHDRKHAVGDDAQFEMDI | soluble
20 | MGHHHHHHSHMTAYSVGMGAEIQLCSHPIGLSKNQSRNPTKTLDSAKILACSLAQSKQPIRWEADPYNNIVYSIYYMELTLPTTPCRMLPQYQEKYGAVGRGTPYWIYYRKTLYLEIPLSERVGLKGGDTKMGIQDGTHQRDPPFYKPTPPPHIPPVLEKHTGWSYLCGYTWWTP | not soluble
